Target: HIV-1 JRFL Env (full length), on infected primary CD4+ T cells and on virions (HIV-1 JRFL, UniProt P20871 32-503; P20871 504-848)
Assay: cell-based or functional assay

B1: X5 antibody (antibody, V domains shown)
VH: VQLLEQSGAEVKKPGSSVQVSCKASGGTFSMYGFNWVRQAPGHGLEWMGGIIPIFGTSNYAQKFRGRVTFTADQATSTAYMELTNLRSDDTAVYYCARDFGPDWEDGDSYDGSGRGFFDFWGQGTLVTVSS
VL: ELVLTQSPGTLSLSAGERATLSCRASQSVSSGSLAWYQQKPGQAPRLLIYGASTRATGIPDRFSGSGSGTDFTLTIGRLEPEDLAVYYCQQYGTSPYTFGQGTKLEIKR
- Neutralization IC50 against JRFL (X5 + sCD4 mix): 3.23 mg/L
- Neutralization IC50 against JRFL (X5 antibody alone): > 10 mg/L

B2: N5-i5 antibody (antibody, V domains shown)
VH: EVQLVESGGGLVQPGGSLRLSCAASGFTFSTYAMSWVRQAPGKGLEWVSSINNSGRNTFSADSVKGRFTISRDNSKNTLFLVMNSLRAEDTAVYYCAKDLRLGGGSDYWGQGTLVTVSS
VL: QSALTQPASVSGSPGQSITISCTGTSSDVGSYNFVSWYQQHPGKAPKLMIYEVSERPSGISNRFSGSKSGNTASLTISGLQAEDEADYYCSSYAGSTTFRVFGGGTKLTVRG
- Neutralization IC50 against JRFL (N5-i5 + sCD4 mix): > 10 mg/L
- Neutralization IC50 against JRFL (N5-i5 antibody alone): > 10 mg/L

B3: A32 antibody (antibody, V domains shown)
VH: QVQLQESGPGLVKPSQTLSLSCTVSGGSSSSGAHYWSWIRQYPGKGLEWIGYIHYSGNTYYNPSLKSRITISQHTSENQFSLKLNSVTVADTAVYYCARGTRLRTLRNAFDIWGQGTMVTVSS
VL: VLTQPPSASGSPGQSVTISCTGTSSDVGGYNYVSWYQHHPGKAPKLIISEVNNRPSGVPDRFSGSKSGNTASLTVSGLQAEDEAEYYCSSYTDIHNFVFGGGTKLTVLG
- Neutralization IC50 against JRFL (A32 + sCD4 mix): > 10 mg/L
- Neutralization IC50 against JRFL (A32 antibody alone): > 10 mg/L

Source: US20240285790A1 (HENRY M JACKSON FOUNDATION FOR THE ADVANCEMENT OF MILITARY …, published 2024)
